Assay results reported in patent publication US20160272683A1 (Novo Nordisk, published 2016).
Numbered stars: 1 amine (or outer) side, 2 acyl side, 3 side chain; on linkers, the order of the positions; unused ones are H or OH. Side chains are listed from the residue outwards. * marks the point of attachment. C20 diacid = O=C(O)CCCCCCCCCCCCCCCCCCC(=O)*; C18 diacid = O=C(O)CCCCCCCCCCCCCCCCC(=O)*; γGlu = O=C(O)[C@H](CCC(=O)[*:2])N[*:1]; Palmitoyl = CCCCCCCCCCCCCCCC(=O)*

B1: [N-terminal(C18 diacid), 5I, 9I, 10I, 20I]mimylin (peptide)
peptide: {C18 diacid}-EASEISTAIIGRLSAELHEIATLPRTETGPESP-NH2
SMILES: CC[C@H](C)[C@H](NC(=O)[C@H](C)NC(=O)[C@@H](NC(=O)[C@H](CO)NC(=O)[C@@H](NC(=O)[C@H](CCC(=O)O)NC(=O)[C@H](CO)NC(=O)[C@H](C)NC(=O)[C@H](CCC(=O)O)NC(=O)CCCCCCCCCCCCCCCCC(=O)O)[C@@H](C)CC)[C@@H](C)O)C(=O)N[C@H](C(=O)NCC(=O)N[C@@H](CCCNC(=N)N)C(=O)N[C@@H](CC(C)C)C(=O)N[C@@H](CO)C(=O)N[C@@H](C)C(=O)N[C@@H](CCC(=O)O)C(=O)N[C@@H](CC(C)C)C(=O)N[C@@H](Cc1c[nH]cn1)C(=O)N[C@@H](CCC(=O)O)C(=O)N[C@H](C(=O)N[C@@H](C)C(=O)N[C@H](C(=O)N[C@@H](CC(C)C)C(=O)N1CCC[C@H]1C(=O)N[C@@H](CCCNC(=N)N)C(=O)N[C@H](C(=O)N[C@@H](CCC(=O)O)C(=O)N[C@H](C(=O)NCC(=O)N1CCC[C@H]1C(=O)N[C@@H](CCC(=O)O)C(=O)N[C@@H](CO)C(=O)N1CCC[C@H]1C(N)=O)[C@@H](C)O)[C@@H](C)O)[C@@H](C)O)[C@@H](C)CC)[C@@H](C)CC
B2: [N-terminal(C20 diacid-gGlu), des1, 15E, 30S, 31G]mimylin (peptide)
peptide: {C20 diacid-γGlu}-ASELSTAALGRLSEELHELATLPRTETGSGSP-NH2
SMILES: CC(C)C[C@H](NC(=O)[C@H](C)NC(=O)[C@H](C)NC(=O)[C@@H](NC(=O)[C@H](CO)NC(=O)[C@H](CC(C)C)NC(=O)[C@H](CCC(=O)O)NC(=O)[C@H](CO)NC(=O)[C@H](C)NC(=O)CC[C@H](NC(=O)CCCCCCCCCCCCCCCCCCC(=O)O)C(=O)O)[C@@H](C)O)C(=O)NCC(=O)N[C@@H](CCCNC(=N)N)C(=O)N[C@@H](CC(C)C)C(=O)N[C@@H](CO)C(=O)N[C@@H](CCC(=O)O)C(=O)N[C@@H](CCC(=O)O)C(=O)N[C@@H](CC(C)C)C(=O)N[C@@H](Cc1c[nH]cn1)C(=O)N[C@@H](CCC(=O)O)C(=O)N[C@@H](CC(C)C)C(=O)N[C@@H](C)C(=O)N[C@H](C(=O)N[C@@H](CC(C)C)C(=O)N1CCC[C@H]1C(=O)N[C@@H](CCCNC(=N)N)C(=O)N[C@H](C(=O)N[C@@H](CCC(=O)O)C(=O)N[C@H](C(=O)NCC(=O)N[C@@H](CO)C(=O)NCC(=O)N[C@@H](CO)C(=O)N1CCC[C@H]1C(N)=O)[C@@H](C)O)[C@@H](C)O)[C@@H](C)O
B3: [N-terminal(C20 diacid-gGlu), des1, 30T, 31G, 32T]mimylin (peptide)
peptide: {C20 diacid-γGlu}-ASELSTAALGRLSAELHELATLPRTETGTGTP-NH2
SMILES: CC(C)C[C@H](NC(=O)[C@H](C)NC(=O)[C@H](C)NC(=O)[C@@H](NC(=O)[C@H](CO)NC(=O)[C@H](CC(C)C)NC(=O)[C@H](CCC(=O)O)NC(=O)[C@H](CO)NC(=O)[C@H](C)NC(=O)CC[C@H](NC(=O)CCCCCCCCCCCCCCCCCCC(=O)O)C(=O)O)[C@@H](C)O)C(=O)NCC(=O)N[C@@H](CCCNC(=N)N)C(=O)N[C@@H](CC(C)C)C(=O)N[C@@H](CO)C(=O)N[C@@H](C)C(=O)N[C@@H](CCC(=O)O)C(=O)N[C@@H](CC(C)C)C(=O)N[C@@H](Cc1c[nH]cn1)C(=O)N[C@@H](CCC(=O)O)C(=O)N[C@@H](CC(C)C)C(=O)N[C@@H](C)C(=O)N[C@H](C(=O)N[C@@H](CC(C)C)C(=O)N1CCC[C@H]1C(=O)N[C@@H](CCCNC(=N)N)C(=O)N[C@H](C(=O)N[C@@H](CCC(=O)O)C(=O)N[C@H](C(=O)NCC(=O)N[C@H](C(=O)NCC(=O)N[C@H](C(=O)N1CCC[C@H]1C(N)=O)[C@@H](C)O)[C@@H](C)O)[C@@H](C)O)[C@@H](C)O)[C@@H](C)O
B4: [N-terminal(C18 diacid-gGlu), des1, 30S, 31G, 32P]mimylin (peptide)
peptide: {C18 diacid-γGlu}-ASELSTAALGRLSAELHELATLPRTETGSGPP-NH2
SMILES: CC(C)C[C@H](NC(=O)[C@H](C)NC(=O)[C@H](C)NC(=O)[C@@H](NC(=O)[C@H](CO)NC(=O)[C@H](CC(C)C)NC(=O)[C@H](CCC(=O)O)NC(=O)[C@H](CO)NC(=O)[C@H](C)NC(=O)CC[C@H](NC(=O)CCCCCCCCCCCCCCCCC(=O)O)C(=O)O)[C@@H](C)O)C(=O)NCC(=O)N[C@@H](CCCNC(=N)N)C(=O)N[C@@H](CC(C)C)C(=O)N[C@@H](CO)C(=O)N[C@@H](C)C(=O)N[C@@H](CCC(=O)O)C(=O)N[C@@H](CC(C)C)C(=O)N[C@@H](Cc1c[nH]cn1)C(=O)N[C@@H](CCC(=O)O)C(=O)N[C@@H](CC(C)C)C(=O)N[C@@H](C)C(=O)N[C@H](C(=O)N[C@@H](CC(C)C)C(=O)N1CCC[C@H]1C(=O)N[C@@H](CCCNC(=N)N)C(=O)N[C@H](C(=O)N[C@@H](CCC(=O)O)C(=O)N[C@H](C(=O)NCC(=O)N[C@@H](CO)C(=O)NCC(=O)N1CCC[C@H]1C(=O)N1CCC[C@H]1C(N)=O)[C@@H](C)O)[C@@H](C)O)[C@@H](C)O
B5: [N-terminal(C20 diacid-gGlu), des1, 25H, 30S, 31G]mimylin (peptide)
peptide: {C20 diacid-γGlu}-ASELSTAALGRLSAELHELATLPHTETGSGSP-NH2
SMILES: CC(C)C[C@H](NC(=O)[C@H](C)NC(=O)[C@H](C)NC(=O)[C@@H](NC(=O)[C@H](CO)NC(=O)[C@H](CC(C)C)NC(=O)[C@H](CCC(=O)O)NC(=O)[C@H](CO)NC(=O)[C@H](C)NC(=O)CC[C@H](NC(=O)CCCCCCCCCCCCCCCCCCC(=O)O)C(=O)O)[C@@H](C)O)C(=O)NCC(=O)N[C@@H](CCCNC(=N)N)C(=O)N[C@@H](CC(C)C)C(=O)N[C@@H](CO)C(=O)N[C@@H](C)C(=O)N[C@@H](CCC(=O)O)C(=O)N[C@@H](CC(C)C)C(=O)N[C@@H](Cc1c[nH]cn1)C(=O)N[C@@H](CCC(=O)O)C(=O)N[C@@H](CC(C)C)C(=O)N[C@@H](C)C(=O)N[C@H](C(=O)N[C@@H](CC(C)C)C(=O)N1CCC[C@H]1C(=O)N[C@@H](Cc1c[nH]cn1)C(=O)N[C@H](C(=O)N[C@@H](CCC(=O)O)C(=O)N[C@H](C(=O)NCC(=O)N[C@@H](CO)C(=O)NCC(=O)N[C@@H](CO)C(=O)N1CCC[C@H]1C(N)=O)[C@@H](C)O)[C@@H](C)O)[C@@H](C)O
B6: [N-terminal(C18 diacid-gGlu), des1, 9V, 30S, 31G]mimylin (peptide)
peptide: {C18 diacid-γGlu}-ASELSTAVLGRLSAELHELATLPRTETGSGSP-NH2
SMILES: CC(C)C[C@H](NC(=O)[C@H](CCC(=O)O)NC(=O)[C@H](Cc1c[nH]cn1)NC(=O)[C@H](CC(C)C)NC(=O)[C@H](CCC(=O)O)NC(=O)[C@H](C)NC(=O)[C@H](CO)NC(=O)[C@H](CC(C)C)NC(=O)[C@H](CCCNC(=N)N)NC(=O)CNC(=O)[C@H](CC(C)C)NC(=O)[C@@H](NC(=O)[C@H](C)NC(=O)[C@@H](NC(=O)[C@H](CO)NC(=O)[C@H](CC(C)C)NC(=O)[C@H](CCC(=O)O)NC(=O)[C@H](CO)NC(=O)[C@H](C)NC(=O)CC[C@H](NC(=O)CCCCCCCCCCCCCCCCC(=O)O)C(=O)O)[C@@H](C)O)C(C)C)C(=O)N[C@@H](C)C(=O)N[C@H](C(=O)N[C@@H](CC(C)C)C(=O)N1CCC[C@H]1C(=O)N[C@@H](CCCNC(=N)N)C(=O)N[C@H](C(=O)N[C@@H](CCC(=O)O)C(=O)N[C@H](C(=O)NCC(=O)N[C@@H](CO)C(=O)NCC(=O)N[C@@H](CO)C(=O)N1CCC[C@H]1C(N)=O)[C@@H](C)O)[C@@H](C)O)[C@@H](C)O

Each binder was assayed against T1, human calcitonin receptor (human, UniProt P30988 25-474) (assay: cell-based or functional assay).
T1 sequence (looked up): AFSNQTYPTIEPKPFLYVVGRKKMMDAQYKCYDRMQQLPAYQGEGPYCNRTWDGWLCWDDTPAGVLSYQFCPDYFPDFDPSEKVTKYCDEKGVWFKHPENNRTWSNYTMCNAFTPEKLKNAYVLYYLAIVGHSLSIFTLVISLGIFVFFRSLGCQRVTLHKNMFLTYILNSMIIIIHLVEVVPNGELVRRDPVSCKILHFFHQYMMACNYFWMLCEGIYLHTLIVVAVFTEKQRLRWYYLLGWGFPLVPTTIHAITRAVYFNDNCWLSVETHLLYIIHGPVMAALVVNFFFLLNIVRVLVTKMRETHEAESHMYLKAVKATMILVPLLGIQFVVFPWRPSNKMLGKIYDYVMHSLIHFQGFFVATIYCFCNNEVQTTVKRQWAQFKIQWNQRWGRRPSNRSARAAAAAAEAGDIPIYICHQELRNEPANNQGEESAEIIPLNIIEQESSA
B1 was tested, and the “hCTR funct. EC50 (pM)” value was 6 pM. B2 was tested, and the “hCTR funct. EC50 (pM)” value was 25 pM. In the case of B3, the “hCTR funct. EC50 (pM)” value is reported as 45 pM. With B4 the “hCTR funct. EC50 (pM)” value was 19 pM. Ac-ASK([γGlu-C20 diacid])LSTAALGRLSAELHELATLPRTETGSGSP-NH2 [[N-terminal(acetyl), des1, 4K(C20 diacid-gGlu), 30S, 31G]mimylin] was tested, and the “hCTR funct. EC50 (pM)” value was 27 pM. B5 was tested, and the “hCTR funct. EC50 (pM)” value was 18 pM. Palmitoyl-EASELSTAALGRLSAELHELATLPRTETGPESP-NH2 [[N-terminal(C16)]mimylin] was tested, and the “hCTR funct. EC50 (pM)” value was 13 pM. In the case of Ac-ASELSTAALGRLSAK([γGlu-C20 diacid])LHELATLPRTETGSGSP-NH2 [[N-terminal(acetyl), des1, 16K(C20 diacid-gGlu), 30S, 31G]mimylin], the “hCTR funct. EC50 (pM)” value is reported as 28 pM. For B6, the “hCTR funct. EC50 (pM)” value was 14 pM. For Ac-ASELSTAALGRLSAELHK([γGlu-C20 diacid])LATLPRTETGSGSP-NH2 [[N-terminal(acetyl), des1, 19K(C20 diacid-gGlu), 30S, 31G]mimylin], the “hCTR funct. EC50 (pM)” value was 19 pM. In the case of {C20 diacid-γGlu}-ASELSTAALGHLSAELHELATLPRTETGSGSP-NH2 [[N-terminal(C20 diacid-gGlu), des1, 12H, 30S, 31G]mimylin], the “hCTR funct. EC50 (pM)” value is reported as 12 pM.

These binders were tested against T2, human amylin 3(a) receptor (human calcitonin receptor co-expressed with RAMP-3) (human, UniProt P30988 25-474; O60896 24-148, limits assumed) (assay: cell-based or functional assay).
T2 sequence (looked up) 1: T1 sequence (looked up)
T2 sequence (looked up) 2: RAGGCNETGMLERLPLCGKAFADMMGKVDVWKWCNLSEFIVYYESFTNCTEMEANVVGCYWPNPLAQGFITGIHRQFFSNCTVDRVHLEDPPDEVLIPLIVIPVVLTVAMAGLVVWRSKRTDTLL
With B1 the “hAmylin-R funct. EC50 (pM)” value was 10 pM. In the case of B2, the “hAmylin-R funct. EC50 (pM)” value is reported as 41 pM. For B3, the “hAmylin-R funct. EC50 (pM)” value was 50 pM. With B4 the “hAmylin-R funct. EC50 (pM)” value was 80 pM. For Ac-ASK([γGlu-C20 diacid])LSTAALGRLSAELHELATLPRTETGSGSP-NH2 [[N-terminal(acetyl), des1, 4K(C20 diacid-gGlu), 30S, 31G]mimylin], the “hAmylin-R funct. EC50 (pM)” value was 36 pM. With B5 the “hAmylin-R funct. EC50 (pM)” value was 27 pM. Palmitoyl-EASELSTAALGRLSAELHELATLPRTETGPESP-NH2 [[N-terminal(C16)]mimylin] was tested, and the “hAmylin-R funct. EC50 (pM)” value was 10 pM. For Ac-ASELSTAALGRLSAK([γGlu-C20 diacid])LHELATLPRTETGSGSP-NH2 [[N-terminal(acetyl), des1, 16K(C20 diacid-gGlu), 30S, 31G]mimylin], the “hAmylin-R funct. EC50 (pM)” value was 21 pM. In the case of B6, the “hAmylin-R funct. EC50 (pM)” value is reported as 10 pM. With Ac-ASELSTAALGRLSAELHK([γGlu-C20 diacid])LATLPRTETGSGSP-NH2 [[N-terminal(acetyl), des1, 19K(C20 diacid-gGlu), 30S, 31G]mimylin] the “hAmylin-R funct. EC50 (pM)” value was 32 pM. {C20 diacid-γGlu}-ASELSTAALGHLSAELHELATLPRTETGSGSP-NH2 [[N-terminal(C20 diacid-gGlu), des1, 12H, 30S, 31G]mimylin] was tested, and the “hAmylin-R funct. EC50 (pM)” value was 17 pM.
